Tests used:
Test in all cases: SEC
[1] = target: recombinant motavizumab dimeric IgA2 (UniProt P01591)
[2] = target: recombinant motavizumab dimeric IgA1 (UniProt P01591)
[3] = target: recombinant palivizumab dimeric IgA2 (UniProt P01591)
[4] = target: recombinant palivizumab dimeric IgA1 (UniProt P01591)

sIgA formation [1]: 100%
sIgA formation [2]: 100%
sIgA formation [3]: 100%
sIgA formation [4]: 100%
Substance: secretory component (domain or fragment)
